PMC4538829

Experiments:
[1] = molecular target: NM23-H2 wild-type (UniProt P22392 1-152); test: ELISA
[2] = molecular target: T1, NM23-H2 D121A (UniProt P22392 1-152, D121A); test: EMSA
[3] = molecular target: T2, NM23-H2 D54A/D121A/F60A (UniProt P22392 1-152, D54A;F60A;D121A); test: EMSA
[4] = molecular target: T3, NM23-H2 D54A/D121A (UniProt P22392 1-152, D54A;D121A); test: EMSA
[5] = molecular target: T4, NM23-H2 G113F (UniProt P22392 1-152, G113F); test: EMSA
[6] = molecular target: T1, NM23-H2 D121A; test: filter binding
[7] = molecular target: T2, NM23-H2 D54A/D121A/F60A; test: filter binding
[8] = molecular target: T3, NM23-H2 D54A/D121A; test: filter binding
[9] = molecular target: T4, NM23-H2 G113F; test: filter binding

T2 sequence (P22392 whole entry D54A/F60A/D121A): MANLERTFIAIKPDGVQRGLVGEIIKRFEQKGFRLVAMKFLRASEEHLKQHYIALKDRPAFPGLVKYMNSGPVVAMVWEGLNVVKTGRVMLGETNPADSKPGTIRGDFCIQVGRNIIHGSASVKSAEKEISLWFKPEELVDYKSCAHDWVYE
T4 sequence (P22392 whole entry G113F): as the sequence (P22392 whole entry D54A/F60A/D121A) above, with A54D, A60F, G113F, A121D counted along it
T1 sequence (P22392 whole entry D121A): as the sequence (P22392 whole entry D54A/F60A/D121A) above, with A54D, A60F counted along it
T3 sequence (P22392 whole entry D54A/D121A): as the sequence (P22392 whole entry D54A/F60A/D121A) above, with A60F counted along it
Chain of NM23-H2 wild-type (P22392 whole entry): as the sequence (P22392 whole entry D54A/F60A/D121A) above, with A54D, A60F, A121D counted along it

Binder AGGGTGGGGAGGGTGGGG (structured_DNA) [c-MYC Pu18 G-quadruplex] has a Kd [1] of 530 ± 18 nM.

TGGGGAGGGTGGGGAGGGTGGGGAAGG (ssDNA) [c-MYC Pu27 (FAM)]: no binding [2]; no binding [3]; no binding [4]. TGGGGAGGGTGGGGAGGGTGGGGAAGG (ssDNA) [c-MYC Pu27 (FAM)]: no binding [5].

TGGGGAGGGTGGGGAGGGTGGGGAAGG (ssDNA) [SS-Pu27 (biotin)]: no binding [6]; no binding [7]; no binding [8]. TGGGGAGGGTGGGGAGGGTGGGGAAGG (ssDNA) [SS-Pu27 (biotin)]: no binding [9].
